This note sets out measurements from US6989144.

Bounds are passed on as bounds.

One test addresses collagen type I. Kind of test: cell-based or functional assay.
The target of test [1] is GPVI on baboon platelets (baboon). The experiment in a line: flow cytometry, washed baboon platelets; negative control. Background: In flow cytometry, cells or beads pass a laser one at a time.
Test [2] has the same target. Kind of test: flow cytometry, washed baboon platelets.
In test [3] the target is soluble human GPVI-Fc (extracellular domain of GPVI fused to Fc; hGPVI-human IgG1Fc) (human) (UniProt Q9HCN6). The experiment in a line: 125I-convulxin binding to GPVI-Fc captured on 1P10.2, 10 µg/ml reagent; competitor ligand convulxin.
Sequence of soluble human GPVI-Fc (extracellular domain of GPVI fused to Fc; hGPVI-human IgG1Fc) (human) (Q9HCN6 other isoform, or with tags, fused parts or gaps): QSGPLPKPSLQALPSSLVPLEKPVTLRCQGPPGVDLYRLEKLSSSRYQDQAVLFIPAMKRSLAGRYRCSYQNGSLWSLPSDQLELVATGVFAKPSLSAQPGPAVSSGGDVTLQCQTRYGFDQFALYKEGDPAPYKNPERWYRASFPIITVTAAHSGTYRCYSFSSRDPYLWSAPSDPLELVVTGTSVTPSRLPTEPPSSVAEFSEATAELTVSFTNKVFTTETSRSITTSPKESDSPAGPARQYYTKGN

For “recombinant human soluble GPVI:Fc (rhusGPVI:Fc) (from UniProt Q9HCN6 21-269) (Fc fusion)”, the collagen-induced platelet aggregation and secretion in the test with collagen type I came to 10 fold.
As to “monoclonal antibody 7H14.1 (negative control)”, in test [1], the Baboon fluorescence intensity stood at 9 and the Baboon platelets % positive was found to be 6.8%.
In test [2], “mouse monoclonal antibody produced by hybridoma cell line 9012.2” displayed a Baboon fluorescence intensity of 18 and a Baboon platelets % positive of 33.8%. Further, in test [3], the % blocking of GPVI-Fc binding to convulxin is greater than 25%.
Regarding “monoclonal antibody 7120.2 (negative control)”, in test [1], the Baboon fluorescence intensity was 10 and the Baboon platelets % positive amounted to 9%.
